Laboratory results taken from US20190345230A1.

Legend:
Experiment in all cases: cell-based or functional assay
[1] = molecular target: HA protein of influenza B virus B/Xiamen/891/2006 (Yamagata lineage) (Influenza B virus B/Xiamen/891/2006)
[2] = molecular target: HA protein of influenza B virus B/Florida/4/2006 (Yamagata lineage) (Influenza B virus B/Florida/4/2006)
[3] = molecular target: HA protein of influenza B virus B/Xiamen/N639/2010 (Victoria lineage) (Influenza B virus B/Xiamen/N639/2010)
[4] = molecular target: HA protein of influenza B virus B/Xiamen/N697/2012 (Yamagata lineage) (Influenza B virus B/Xiamen/N697/2012)
[5] = molecular target: HA protein of influenza B virus B/Great Lakes/1739/1954 (Influenza B virus B/Great Lakes/1739/1954)
[6] = molecular target: HA protein of influenza B virus B/Brisbane/33/2008 (Victoria lineage) (Influenza B virus B/Brisbane/33/2008)
[7] = molecular target: HA protein of influenza B virus B/Harbin/7/1994 (Yamagata lineage) (Influenza B virus B/Harbin/7/1994)
[8] = molecular target: HA protein of influenza B virus B/Brisbane/60/2008 (Victoria lineage) (Influenza B virus B/Brisbane/60/2008)
[9] = molecular target: HA protein of influenza B virus B/Xiamen/165/2007 (Victoria lineage) (Influenza B virus B/Xiamen/165/2007)
[10] = molecular target: HA protein of influenza B virus B/Maryland/1/1959 (Influenza B virus B/Maryland/1/1959) (UniProt P03461)
[11] = molecular target: HA protein of influenza B virus B/Xiamen/1147/2008 (Yamagata lineage) (Influenza B virus B/Xiamen/1147/2008)
[12] = molecular target: HA protein of influenza A virus A/Brisbane/10/2007 (seasonal H3N2) (Influenza A virus A/Brisbane/10/2007 (H3N2))
[13] = molecular target: HA protein of influenza B virus B/Malaysia/2506/2004 (Victoria lineage) (Influenza B virus B/Malaysia/2506/2004)
[14] = molecular target: HA protein of influenza B virus B/Xiamen/756/2007 (Yamagata lineage) (Influenza B virus B/Xiamen/756/2007)
[15] = molecular target: HA protein of influenza B virus B/Taiwan/2/1962 (Influenza B virus B/Taiwan/2/1962)
[16] = molecular target: HA protein of influenza B virus B/Lee/1940 (Influenza B virus B/Lee/1940) (UniProt P03460)
[17] = molecular target: HA protein of influenza B virus B/Hong Kong/330/2001 (Victoria lineage) (Influenza B virus B/Hong Kong/330/2001)
[18] = molecular target: HA protein of influenza B virus B/Xiamen/3043/2006 (Victoria lineage) (Influenza B virus B/Xiamen/3043/2006)
[19] = molecular target: HA protein of influenza B virus B/Xiamen/N678/2012 (Victoria lineage) (Influenza B virus B/Xiamen/N678/2012)
[20] = molecular target: HA protein of B/Xiamen/1346/2008 (Victoria lineage) (Influenza B virus B/Xiamen/1346/2008 (Victoria lineage)) (UniProt P22092)
[21] = molecular target: HA protein of B/Singapore/3/1964 (Influenza B virus B/Singapore/3/1964) (UniProt P03464)

B1: monoclonal antibody 12G6 (antibody, V domains shown)
VH: EVHLQQSGPELVKPGASVKMSCEASGYTFTDYYVAWVKQSPGESFEWIGRVNPYSGGTSYNQKFKGKATLIVDKSSSTAYMELSSLTSEDSAVYYCARWDYGVYEGYIDYWGQGSALTV
VL: DIQMTQSPASLSVSVGETVTITCRASEKIYSNLAWYQQKEGKSPQLLVYAAIRLADGVPSRFSGSGSGTQFSLKINSLQSEDFGTYYCQHFWGTPLTFGAGTKLELK
Work on B1 yielded an HI titer (dilution fold) [1] of less than 100, a Neutralization titer [1] of 1600 titer and an HI titer (dilution fold) [2] of 12800. For the same binder, the Neutralization titer [2] was greater than 25600 titer, the HI titer (dilution fold) [3] was less than 100 and the Neutralization titer [3] was 3200 titer. It also gave an HI titer (dilution fold) [4] of less than 100, a Neutralization titer [4] of 800 titer and an HI titer (dilution fold) [5] of 1600. It also gave a Neutralization titer [5] greater than 25600 titer, an HI titer (dilution fold) [6] of 3200 and a Neutralization titer [6] greater than 25600 titer. The HI titer (dilution fold) [7] was 200, the Neutralization titer [7] was 3200 titer and the HI titer (dilution fold) [8] was 3200. The Neutralization titer [8] was greater than 25600 titer, the HI titer (dilution fold) [9] was less than 100 and the Neutralization titer [9] was 6400 titer. It also gave an HI titer (dilution fold) [10] of less than 100, a Neutralization titer [10] of 3200 titer and an HI titer (dilution fold) [11] of less than 100. It also gave a Neutralization titer [11] of 1600 titer, an HI titer (dilution fold) [12] of less than 100 and a Neutralization titer [12] of less than 100 titer. It also gave an HI titer (dilution fold) [13] of 3200, a Neutralization titer [13] of 12800 titer and an HI titer (dilution fold) [14] of less than 100. For the same binder, the Neutralization titer [14] was 1600 titer, the HI titer (dilution fold) [15] was less than 100 and the Neutralization titer [15] was 1600 titer. It also gave an HI titer (dilution fold) [16] of 6400, a Neutralization titer [16] of 6400 titer and an HI titer (dilution fold) [17] of 3200. It also gave a Neutralization titer [17] greater than 25600 titer, an HI titer (dilution fold) [18] of less than 100 and a Neutralization titer [18] of 3200 titer. For the same binder, the HI titer (dilution fold) [19] was less than 100, the Neutralization titer [19] was 1600 titer and the HI titer (dilution fold) [20] was less than 100. For the same binder, the Neutralization titer [20] was 3200 titer, the HI titer (dilution fold) [21] was 400 and the Neutralization titer [21] was 6400 titer.

B2: monoclonal antibody 7G6 (antibody, V domains shown)
VH: EVQLQQSGPELVKPGASVKISCKASGYTFTDYNMHWVKQSLGKSLEWIGYIYPNNGGTGYNQKFESKATLTVDNSSSTAYMELRTLTSEDSAVYYCVRSGAYYFNYLVPYFDYWGQGTTLTVSS
VL: NIVLTQSPASLAVSLGQRATISCRASESVDIYGNSFMHWYQQKPGQPPKLLIYLASKLECGVCARFNGSGCRTDFTLAIDPVEGDDGATYYCQQNYEDPWTFGGGTKLEIK
B2 was tested, and the HI titer (dilution fold) [1] was greater than 25600, the Neutralization titer [1] was greater than 25600 titer and the HI titer (dilution fold) [2] was greater than 25600. The Neutralization titer [2] was greater than 25600 titer, the HI titer (dilution fold) [3] was 3200 and the Neutralization titer [3] was 3200 titer. It also gave an HI titer (dilution fold) [4] greater than 25600, a Neutralization titer [4] greater than 25600 titer and an HI titer (dilution fold) [5] of less than 100. It also gave a Neutralization titer [5] of less than 100 titer, an HI titer (dilution fold) [6] of 3200 and a Neutralization titer [6] greater than 25600 titer. It also gave an HI titer (dilution fold) [7] of less than 100, a Neutralization titer [7] of less than 100 titer and an HI titer (dilution fold) [8] of 3200. For the same binder, the Neutralization titer [8] was 12800 titer, the HI titer (dilution fold) [9] was 12800 and the Neutralization titer [9] was 12800 titer. For the same binder, the HI titer (dilution fold) [10] was 6400, the Neutralization titer [10] was 800 titer and the HI titer (dilution fold) [11] was greater than 25600. It also gave a Neutralization titer [11] greater than 25600 titer, an HI titer (dilution fold) [12] of less than 100 and a Neutralization titer [12] of less than 100 titer. It also gave an HI titer (dilution fold) [13] of 6400, a Neutralization titer [13] greater than 25600 titer and an HI titer (dilution fold) [14] of 12800. For the same binder, the Neutralization titer [14] was 12800 titer, the HI titer (dilution fold) [15] was 12800 and the Neutralization titer [15] was 12800 titer. The HI titer (dilution fold) [16] was 1600, the Neutralization titer [16] was 1600 titer and the HI titer (dilution fold) [17] was greater than 25600. The Neutralization titer [17] was greater than 25600 titer, the HI titer (dilution fold) [18] was 12800 and the Neutralization titer [18] was 12800 titer. It also gave an HI titer (dilution fold) [19] of 6400, a Neutralization titer [19] of 6400 titer and an HI titer (dilution fold) [20] of 6400. For the same binder, the Neutralization titer [20] was 6400 titer, the HI titer (dilution fold) [21] was 3200 and the Neutralization titer [21] was greater than 25600 titer.

B3: monoclonal antibody 11B10 (antibody, V domains shown)
VH: EVQLQQSGPELVKPGASVKISCKASGYTFTGYNMHWVKQSHGKSLEWIGKIYPNNGVTGYNQEFRSKATLTVDNSSSTAYMELRSLTSEDSAIYFCVRSGAYYVNYLVPYFDYWGQGTTLTVSS
VL: NIVLTQSPASLAVSPGQRATISCRASESIDIYGNSFMHWYQKKPGQPPKLLIYRASNLESGVPARFNGSGSRTDFTLTIDPVEGDDGATYYCQQNYEDPWTFGGGTKLEIK
For B3, the HI titer (dilution fold) [1] was 800, the Neutralization titer [1] was 800 titer and the HI titer (dilution fold) [2] was 400. For the same binder, the Neutralization titer [2] was 6400 titer, the HI titer (dilution fold) [3] was 400 and the Neutralization titer [3] was 400 titer. The HI titer (dilution fold) [4] was 800, the Neutralization titer [4] was 800 titer and the HI titer (dilution fold) [5] was less than 100. For the same binder, the Neutralization titer [5] was less than 100 titer, the HI titer (dilution fold) [6] was less than 100 and the Neutralization titer [6] was 800 titer. For the same binder, the HI titer (dilution fold) [7] was less than 100, the Neutralization titer [7] was less than 100 titer and the HI titer (dilution fold) [8] was less than 100. For the same binder, the Neutralization titer [8] was 3200 titer, the HI titer (dilution fold) [9] was 3200 and the Neutralization titer [9] was 3200 titer. For the same binder, the HI titer (dilution fold) [10] was less than 100, the Neutralization titer [10] was less than 100 titer and the HI titer (dilution fold) [11] was 800. For the same binder, the Neutralization titer [11] was 800 titer, the HI titer (dilution fold) [12] was less than 100 and the Neutralization titer [12] was less than 100 titer. It also gave an HI titer (dilution fold) [13] of 3200, a Neutralization titer [13] greater than 25600 titer and an HI titer (dilution fold) [14] of 400. For the same binder, the Neutralization titer [14] was 400 titer, the HI titer (dilution fold) [15] was 800 and the Neutralization titer [15] was 800 titer. It also gave an HI titer (dilution fold) [16] of less than 100, a Neutralization titer [16] of less than 100 titer and an HI titer (dilution fold) [17] of 800. It also gave a Neutralization titer [17] greater than 25600 titer, an HI titer (dilution fold) [18] of 6400 and a Neutralization titer [18] of 6400 titer. It also gave an HI titer (dilution fold) [19] of 400, a Neutralization titer [19] of 400 titer and an HI titer (dilution fold) [20] of 3200. The Neutralization titer [20] was 3200 titer, the HI titer (dilution fold) [21] was less than 100 and the Neutralization titer [21] was 800 titer.
